Assay in all cases: NMR
Common to all, as to details: 300 K; not stated; 20 mM sodium phosphate; phosphoric acid (20 %) added for lower pH, NaOH (1 M) for higher pH; samples dialysed overnight; folded isolated PsbO-β, 9-14 mg/mL, free of PSII partners

The target of data set [1] is Asp102 (UniProt position 128, …).
Data set [2] deals with Asp141 (UniProt position 167, …).
Data set [3] addresses Asp205 (UniProt position 231, …).
In data set [4] the target is Asp23 (UniProt position 49, …).
Data set [5] concerns the target Asp24 (UniProt position 50, …).
For data set [6], the target named is Asp33 (UniProt position 59, …).
The target in data set [7] is Asp79 (UniProt position 105, …).
For data set [8], the target named is Asp90 (UniProt position 116, …).
Data set [9] addresses Asp99 (UniProt position 125, …).
The target of data set [10] is Glu114 (UniProt position 140, …).
For data set [11], the target named is Glu145 (UniProt position 171, …).
The target of data set [12] is Glu210 (UniProt position 236, …).
Data set [13] addresses Glu216 (UniProt position 242, …).
In data set [14] the target is Glu218 (UniProt position 244, …).
Data set [15] has as its target Glu232 (UniProt position 258, …).
Data set [16] concerns the target Glu244 (UniProt position 270, FYASIEPA---).
Data set [17] has as its target Glu54 (UniProt position 80, …).
Data set [18] deals with Glu64 (UniProt position 90, …).
The target of data set [19] is Glu74 (UniProt position 100, …).
Data set [20] deals with Glu84 (UniProt position 110, …).
Data set [21] concerns the target Glu98 (UniProt position 124, …).

Data on one protein can be found in article PMC7318136.

B1: PsbO-β (β-barrel construct of photosystem II manganese-stabilizing protein PsbO) (Thermosynechococcus elongatus; deletion of 1-15; deletion of 55-63 (replaced … (protein)
chain: MNHKCPTLDDTARGAYPIDSSQTYRIARLCLQPTTFLVKENGEFVPTKLVTRETTSLDQIQGELKVNSDGSLTFVEEDGIDFQPVTVQMAGGERIPLLFTVKNLVASTQPNVTSITTSTDFKGEFNVNGTKGQISLNVAKVDGRTGEIAGTFESEQLSNGHEVKIQGVFYASIEPA
Consider B1, for which the pKa (usually the pH at which an ionisable group is half protonated) in data set [1] is given as greater than 7; in [2] it was 4.89±0.03; in data set [3], 3.45±0.09; in data set [4] it was 3.41±0.05; in data set [5] it was 3.06±0.03; in [6], 3.47±0.05. Besides, the pKa is less than 2.5 in data set [7]; 1.56±0.14 in data set [8]; less than 5 in data set [9]; 3.81±0.08 in data set [10]; 4.52±0.04 in [11]; 2.66±0.12 in [12]. Moreover, the pKa in data set [13] is given as 3.91±0.10; in data set [14] it was 5.13±0.07; in data set [15], 4.20±0.10; in data set [16], 4.97±0.08; in data set [17], 4.47±0.06; in [18], 4.17±0.04. Moreover, the pKa in data set [19] is 3.37±0.05; in data set [20], 4.64±0.07; in data set [21], 4.99±0.04.
